The source of these data is the supplement of paper PMC10567573.

First the molecules themselves.
B1: MATN2 (parent)
chain: FSLKTFKRKSEVERAVKRMRHLST
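Further: lentivirally expressed fusions sorted by FACS into six bins by GFP to DsRed ratio, PSI derived from sequencing read proportions per bin multiplied by bin number.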

This series covers variants of B1. The series can be described thus: protein stability index of a GFP-peptide fusion (GPS, HEK-293T) (PSI 1-6); higher = more stable. As to conditions: c terminus: a fixed tail appended.
With FSLKTFKRKSEVERDVKRMRHLST [A15D], the protein stability index is 2.89.

As for FSLKTFKRKSEVERCVKRMRHLST [A15C], the protein stability index worked out at 2.27.

With FSLKTFKRKSEVERPVKRMRHLST [A15P], the protein stability index was determined as 2.43.

Consider FSLKTFKRKSEVERRVKRMRHLST [A15R], for which the protein stability index stood at 3.91.

As to FSLKTFKRKSEVERFVKRMRHLST [A15F], the protein stability index was 2.94.

On to FSLKTFKRKSEVERTVKRMRHLST [A15T], for which the protein stability index worked out at 2.78.

As to FSLKTFKRKSEVERIVKRMRHLST [A15I], the protein stability index came out at 1.38.

In the case of FSLKTFKRKSEVERAVKRMHHLST [R20H], the protein stability index worked out at 2.

Consider FSLKTFKRKSEVERAVKRMKHLST [R20K], for which the protein stability index amounted to 2.59.

Turning to FSLKTFKRKSEVERAVKRMLHLST [R20L], the protein stability index is 2.81.

As for FSLKTFKRKSEVERAVKRMFHLST [R20F], the protein stability index was 1.9.

As to FSLKTFKRKSEVERAVKRMTHLST [R20T], the protein stability index was 2.57.

On to FSLKTFKRKSEVERAVKRMIHLST [R20I], for which the protein stability index is 2.82.

On to FSLKTFKRKSEVERAVKRMEHLST [R20E], for which the protein stability index came out at 2.54.

As to FSLKTFKRKSEVERAVKRMWHLST [R20W], the protein stability index came out at 1.24.

For FSLKTFKRKSEVERAVKRMAHLST [R20A], the protein stability index stood at 2.14.

Consider FSLKTFKRKSEVERAVKRMNHLST [R20N], for which the protein stability index is 2.54.

As to FSLKTFKRKSEVERAVKRMMHLST [R20M], the protein stability index was found to be 2.08.

As to FSLKTFKRKSEVERAVKRMSHLST [R20S], the protein stability index was found to be 2.42.

For the variant FSLKTFKRKSEVERAVKRMVHLST [R20V], the protein stability index is 1.6.

Turning to FSLKTFKRKSEVERAVKRMYHLST [R20Y], the protein stability index amounted to 2.32.

For the variant FSLKTFKRKSEVERAVKRMPHLST [R20P], the protein stability index was found to be 3.21.

Consider FSLKTFKRKSEVERAVKRMQHLST [R20Q], for which the protein stability index is 2.22.

As for FSLKTFKRKSEVERAVKRMGHLST [R20G], the protein stability index was found to be 2.38.

As for FSLKTFKRKSEVERAVKRMCHLST [R20C], the protein stability index was found to be 2.4.

Turning to FSLKTFKRKSEVERAVKRMDHLST [R20D], the protein stability index turned out to be 2.54.

For the variant FSLKTFKRKSEVERAVCRMRHLST [K17C], the protein stability index stood at 2.35.

With FSLKTFKRKSEVERAVMRMRHLST [K17M], the protein stability index amounted to 2.53.

As for FSLKTFKRKSEVERAVERMRHLST [K17E], the protein stability index came to 2.38.

As for FSLKTFKRKSEVERAVQRMRHLST [K17Q], the protein stability index was 2.13.

FSLKTFKRKSEVERAVVRMRHLST [K17V]: the protein stability index is 2.69.

For the variant FSLKTFKRKSEVERAVDRMRHLST [K17D], the protein stability index was found to be 2.92.

For the variant FSLKTFKRKSEVERAVSRMRHLST [K17S], the protein stability index worked out at 2.65.

For the variant FSLKTFKRKSEVERAVIRMRHLST [K17I], the protein stability index stood at 2.04.

Take FSLKTFKRKSEVERAVFRMRHLST [K17F]: the protein stability index was 1.75.

Turning to FSLKTFKRKSEVERAVPRMRHLST [K17P], the protein stability index was 3.24.

Turning to FSLKTFKRKSEVERAVLRMRHLST [K17L], the protein stability index was 1.92.

Take FSLKTFKRKSEVERAVARMRHLST [K17A]: the protein stability index was 2.26.

On to FSLKTFKRKSEVERAVYRMRHLST [K17Y], for which the protein stability index was 1.76.

On to FSLKTFKRKSEVERAVHRMRHLST [K17H], for which the protein stability index came out at 3.01.

For the variant FSLKTFKRKSEVERAVRRMRHLST [K17R], the protein stability index amounted to 1.87.

On to FSLKTFKRKSEVERAVNRMRHLST [K17N], for which the protein stability index was determined as 2.5.

With FSLKTFKRKSEVERAVTRMRHLST [K17T], the protein stability index was 2.34.

Take FSLKTFKRKSEVERAVKRVRHLST [M19V]: the protein stability index is 2.21.

Regarding FSLKTFKRKSEVERAVKRKRHLST [M19K], the protein stability index came out at 3.67.

With FSLKTFKRKSEVERAVKRYRHLST [M19Y], the protein stability index came to 2.5.

With FSLKTFKRKSEVERAVKRCRHLST [M19C], the protein stability index came to 2.61.

In the case of FSLKTFKRKSEVERAVKRLRHLST [M19L], the protein stability index was found to be 2.31.

As to FSLKTFKRKSEVERAVKRARHLST [M19A], the protein stability index was determined as 3.21.

In the case of FSLKTFKRKSEVERAVKRQRHLST [M19Q], the protein stability index is 2.57.

Regarding FSLKTFKRKSEVERAVKRWRHLST [M19W], the protein stability index was found to be 2.9.

As to FSLKTFKRKSEVERAVKRFRHLST [M19F], the protein stability index is 2.18.

With FSLKTFKRKSEVERAVKRHRHLST [M19H], the protein stability index worked out at 2.89.

With FSLKTFKRKSEVERAVKRDRHLST [M19D], the protein stability index worked out at 2.76.

On to FSLKTFKRKSEVERAVKRPRHLST [M19P], for which the protein stability index worked out at 2.14.

For the variant FSLKTFKRKSEVERAVKRNRHLST [M19N], the protein stability index turned out to be 2.68.

For the variant FSLKTFKRKSEVERAVKRIRHLST [M19I], the protein stability index turned out to be 4.04.

As for FSLKTFKRKSEVERAVKRSRHLST [M19S], the protein stability index came out at 2.84.

As for FSLKTFKRKSEVERAVKRERHLST [M19E], the protein stability index was 3.34.

Consider FSLKTFKRKSEVERAVKRRRHLST [M19R], for which the protein stability index worked out at 4.54.

As to FSLKTFKRKSEVERAVKRTRHLST [M19T], the protein stability index turned out to be 2.84.

Turning to FSLKTFKRKSEVEWAVKRMRHLST [R14W], the protein stability index stood at 2.25.

Regarding FSLKTFKRKSEVESAVKRMRHLST [R14S], the protein stability index was found to be 2.49.

Consider FSLKTFKRKSEVETAVKRMRHLST [R14T], for which the protein stability index came to 2.87.

Turning to FSLKTFKRKSEVEPAVKRMRHLST [R14P], the protein stability index came out at 2.49.

Turning to FSLKTFKRKSEVEFAVKRMRHLST [R14F], the protein stability index came out at 2.65.

FSLKTFKRKSEVECAVKRMRHLST [R14C]: the protein stability index was determined as 1.83.

For FSLKTFKRKSEVENAVKRMRHLST [R14N], the protein stability index came to 2.46.

FSLKTFKRKSEVEEAVKRMRHLST [R14E]: the protein stability index amounted to 2.49.

FSLKTFKRKSEVELAVKRMRHLST [R14L]: the protein stability index amounted to 1.96.

Consider FSLKTFKRKSEVEVAVKRMRHLST [R14V], for which the protein stability index stood at 2.75.

FSLKTFKRKSEVEDAVKRMRHLST [R14D]: the protein stability index turned out to be 2.73.

For the variant FSLKTFKRKSEVEKAVKRMRHLST [R14K], the protein stability index was 3.11.

In the case of FSLKTFKRKSEVEMAVKRMRHLST [R14M], the protein stability index was determined as 3.08.

As for FSLKTFKRKSEVEHAVKRMRHLST [R14H], the protein stability index came to 2.28.

For the variant FSLKTFKRKSEVEGAVKRMRHLST [R14G], the protein stability index is 2.15.

On to FSLKTFKRKSEVERAVKHMRHLST [R18H], for which the protein stability index stood at 2.4.

FSLKTFKRKSEVERAVKNMRHLST [R18N]: the protein stability index worked out at 2.52.

Turning to FSLKTFKRKSEVERAVKFMRHLST [R18F], the protein stability index is 1.54.

On to FSLKTFKRKSEVERAVKCMRHLST [R18C], for which the protein stability index is 1.8.

With FSLKTFKRKSEVERAVKMMRHLST [R18M], the protein stability index is 1.93.

Regarding FSLKTFKRKSEVERAVKDMRHLST [R18D], the protein stability index came out at 2.8.

As for FSLKTFKRKSEVERAVKVMRHLST [R18V], the protein stability index was found to be 2.34.

As to FSLKTFKRKSEVERAVKYMRHLST [R18Y], the protein stability index worked out at 3.03.

With FSLKTFKRKSEVERAVKGMRHLST [R18G], the protein stability index was determined as 2.8.

Consider FSLKTFKRKSEVERAVKSMRHLST [R18S], for which the protein stability index worked out at 2.21.

On to FSLKTFKRKSEVERAVKIMRHLST [R18I], for which the protein stability index worked out at 2.16.

As to FSLKTFKRKSEVERAVKTMRHLST [R18T], the protein stability index came out at 2.26.

Take FSLKTFKRKSEVERAVKAMRHLST [R18A]: the protein stability index is 1.96.

FSLKTFKRKSEVERAVKQMRHLST [R18Q]: the protein stability index is 1.93.

Regarding FSLKTFKRKSEVERAVKPMRHLST [R18P], the protein stability index came out at 2.36.

As to FSLKTFKRKSEVERAVKWMRHLST [R18W], the protein stability index was found to be 2.04.

Take FSLKTFKRKSEVERAVKLMRHLST [R18L]: the protein stability index came to 1.97.

FSLKTFKRKSEVERAVKKMRHLST [R18K]: the protein stability index worked out at 1.97.
